Data: patent US20140255406A1

Legend:
[1] = molecular target: human TNFα (human) (UniProt P01375); assay: cell-based or functional assay
[2] = molecular target: human non-cleavable membrane bound TNFα on CHO cells (human) (UniProt P01375); assay: cell-based or functional assay
Chain of human non-cleavable membrane bound TNFα on CHO cells (human) (P01375 whole entry): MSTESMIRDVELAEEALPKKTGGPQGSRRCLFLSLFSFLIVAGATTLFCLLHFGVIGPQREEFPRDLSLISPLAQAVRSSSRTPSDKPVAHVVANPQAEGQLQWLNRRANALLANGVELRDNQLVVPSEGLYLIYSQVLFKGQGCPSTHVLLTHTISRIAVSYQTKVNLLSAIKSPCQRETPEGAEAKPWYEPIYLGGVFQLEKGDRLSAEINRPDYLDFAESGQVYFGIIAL

Chain of human TNFα (human) (P01375 77-233 limits assumed): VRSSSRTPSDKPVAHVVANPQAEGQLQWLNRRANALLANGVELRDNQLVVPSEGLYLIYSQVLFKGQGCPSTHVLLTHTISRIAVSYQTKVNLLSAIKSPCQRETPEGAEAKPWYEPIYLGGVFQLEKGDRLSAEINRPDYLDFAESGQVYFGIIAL

## adalimumab with IgG4 isotype (antibody)
[1]
  Average % inhibition of human TNFα-induced CXCL1 production in vivo (mouse plasma): 89.4%
  IC50, inhibition of TNFα-induced killing of L929 cells (MTT): 0.243 nM
[2]
  IC50, inhibition of killing of L929 cells by human non-cleavable membrane bound TNFα CHO cells (MTT): 0.669 nM
